Assay results published in US20260240831A1, “CANCER STRATIFICATION AND TREATMENT” (Deutsches Krebsforschungszentrum Stiftung des öffentlichen …, priority 2023, published 2026).
“Also recorded” adds a separate entry of the source.

How the values were obtained:
[1] = tested on: GBM cells for SFRP1 overexpression; assay: SFRP1 inhibitor treatment of tumour-bearing human brain organoids, KI-67 immunohistochemistry; format: cell-based; details: 25 μM, 2 days, vs DMSO control; SFRP1-overexpressing GBM cells in human brain organoids
Procedure: Lentivirally transduced GBM cells for SFRP1 overexpression were injected into day 116-old human brain organoids and cultured in brain Organoid Differentiation Medium with Vitamin A. Injected organoids were maintained for 15 days on an orbital shaker (70 RPM) at 5% CO2 and 37° C. After 15 days, organoids were transferred to culturing medium supplemented with 25 μM of SFRP1 inhibitor WAY-316606 or 25 μM DMSO as a control. Tumour-bearing organoids were maintained for 2 more days and then fixed with 4% formaldehyde for 1 hour at 4° C. on a roller. Fixed organoids were first placed in 10% sucrose in PBS until tissues sank, then transferred to 30% sucrose in PBS. Organoids were then embedded in OCT compound (Tissue-Tek). […]
Confocal images of human brain organoids injected with GBM m-Cherry- and sFRP1-expressing cells that were treated with DMSO or sFRP1 inhibitor. Organoids were stained against Ki67 and mCherry and Ki67+/mCherry+ cells were quantified. […] The tumor origin of segmented cells was determined by assessing background corrected mean fluorescence intensities of the 2D integrated mCherry signal. The count of detected Ki67+/mCherry+ cells was then normalized to the imaged organoid volume yielding a density metric representing cycling tumor cells in both WAY inhibitor treated and DMSO control samples.

PDX GBMs [2] = assay: Tumor IHC morphology of SFRP1-overexpressing PDX; format: in vivo; details: mouse cortex, vs control Wnt-reporter PDX
T6 PDA = assay: scRNA-seq with ptalign cell states of SFRP1-overexpressing T6 PDA in human cortical organoids; format: cell-based; details: 2-week PDA replicates, compared with PDX (not shown)
Procedure: For injection of lentivirally transduced primary GBM cells into human brain organoids, 3×10^4 cells were cultured as single cell suspension overnight. Newly formed spheres were resuspended in 1 μl of Differentiation Medium with vitamin A, loaded into a NanoFil syringe and injected into the core of 2 month-old organoids under a dissection microscope. Tumor bearing organoids were maintained in Differentiation Medium with vitamin A on an orbital shaker (70 RPM) for 15 days at 5% CO2 and 37° C.
In sequence alignment, the position of one query sequence in a larger reference sequence is ascertained by scoring local sequence similarity until an optimal match is found. We employ a conceptually similar strategy to infer a given query cell's optimal positioning in the space of a reference pseudotime trajectory in a method we call ptalign. The ptalign program requires four central inputs: a query counts table, a reference counts table, a reference pseudotime mapping, and a set of genes capturing the reference pseudotime trajectory. Query cells are then placed along the reference pseudotime according to the dynamic of the correlation of their gene expression along the trajectory genes. […] The quality of an assigned pseudotime is determined via the computation of a dynamic time warping (DTW) matrix over the pseudotime-binned reference and the equally binned query. […]

PDX GBMs [3] = assay: scRNA-seq with ptalign cell states of Wnt-antagonist-overexpressing PDX samples; format: in vivo, mouse; details: for Activation state (ptalign cell state) / tumor Differentiation (ptalign aligned pseudotime) / tumor Quiescence (ptalign cell state, incl. astroQ): PDX vs control Wnt-reporter PDX
Procedure: For isolation of the xenografted human GBM cells, tumor bearing mouse brains were dissected and single cell suspension was prepared using Brain Tumor Dissociation Kit (P) and gentleMACS Octo Dissociator with Heaters (Miltenyi) according to manufacturer's instructions. mCherry+ cell population was index sorted into 384 well-plates (Eppendorf Lobind). Microplates containing cell lysates were briefly centrifuged, snap frozen on dry ice and were stored at −80° C. Sytox Blue (Life Technologies, 1:1000) was used in all experiments as a dead cell indicator. Index sorting of single cells as well as sorting of bulk samples was carried out using a 100 micron nozzle at a BD FACSAria II or BD FACSAria Fusion at the Flow Cytometry Core Facility at the DKFZ.
Single cell RNA-sequencing libraries from patient-derived xenografts were prepared using Smart-seq3 platform as previously described (Hagemann-Jensen, Nature Biotechnology, 2020) with minor modifications. The protocol was automated and miniaturized by incorporating liquid handling platforms including Mosquito HV (STPLabtech), Mantix (Formulatrix) and Viaflo 384 (Integra). Briefly, plates were incubated at 72° C. for 10 min to facilitate lysis and denaturation of secondary structures in the RNA. Lysed cells were subjected to reverse transcription in 2 μl using Maxima H-minus reverse transcriptase (Thermo Scientific), an oligo(dT) primer and a template-switching oligonucleotide encompassing an 8-bp unique molecular identifier (IDT). In a randomly selected set of wells, we included ERCC Spike-ins (Ambion) at a 1:2500000 dilution. Full length cDNAs were amplified for 22 cycles of PCR using KAPA HiFi DNA polymerase (KAPA Biosystems). cDNA samples were purified with Ampure XP beads at a 1:0.8 ratio and cDNA quality in randomly selected 10 wells/plate was assessed on a High Sensitivity Bioanalyzer chip (Agilent). cDNA concentrations were quantified using Quant-it PicoGreen dsDNA Assay kit (Thermo Scientific) and Synergy LX multi-mode microplate reader (Biotek). cDNAs were normalized to 250-500 pg μl^−1. 100-200 pg of cDNA per sample was used for tagmentation in 1.2 μl using Illumina XT DNA sample preparation kit. Libraries were finally amplified for 11 cycles of PCR in 4 μl using custom-designed Nextera index primers containing 8-bp index barcode sequences with a minimal Levenshtein distance of 4 as previously published (Buenrostro et al., Nature, 2015). Samples were purified with Ampure XP beads at a 1:0.8 ratio and DNA quality in randomly selected 10 wells/plate was assessed on a High Sensitivity Bioanalyzer chip (Agilent). Libraries were quantified as mentioned above and normalized libraries were equimolarly pooled and purified one last time at a 1:0.8 ratio. Prior to sequencing, final library concentration was determined using Qubit dsDNA High Sensitivity Assay kit (Thermo Scientific) and Qubit fluorometer (Invitrogen) and the average fragment size was calculated on a High Sensitivity Bioanalyzer chip (Agilent). Libraries with 1% spiked-in PhiX control (Illumina) were sequenced at the 75-bp paired end on a high output flow cell using an Illumina NextSeq550 instrument at a sequencing depth of ~1 M reads per cell at the sequencing open lab at the DKFZ.
In sequence alignment, the position of one query sequence in a larger reference sequence is ascertained by scoring local sequence similarity until an optimal match is found. We employ a conceptually similar strategy to infer a given query cell's optimal positioning in the space of a reference pseudotime trajectory in a method we call ptalign. The ptalign program requires four central inputs: a query counts table, a reference counts table, a reference pseudotime mapping, and a set of genes capturing the reference pseudotime trajectory. Query cells are then placed along the reference pseudotime according to the dynamic of the correlation of their gene expression along the trajectory genes. […]

PDX GBMs [4] = assay: Survival of mice bearing Wnt-antagonist-overexpressing T6 PDX GBM; format: in vivo, mouse; details: for overall survival: overexpression under TCF/Lef promoter in PDX vs Wnt-reporter controls
Excerpt: We identified the secreted Wnt antagonist SFRP1 as being implicated in the Q-A transition in the healthy SVZ. […] Similarly, [22] reports a role of SFRP1 in regulating the activation of human NSCs, and data from our own lab implicates its most-conserved paralog, SFRP5, in the activation of murine NSCs. Following these evidences and in order to target Wnt-active tumor cells, we cloned human SFRP1 downstream of the TCF/Lef promoter and generated T6 PDA and PDX tumors as outlined previously.
To allow sorting of human GBM cells, cells were infected with the 7TGC (Addgene plasmid #24304) lentiviral vector at a multiplicity of infection (MOI) of 5. Expression of the transduction marker (mCherry) was confirmed by FACS analysis. Second-generation, self-inactivating, replication deficient lentiviral particles were produced, purified and titrated as described previously ([32]).
For ortotopic injection of lentivirally transduced primary GBM cells into the mouse brain, 5×10^5 cells were cultured as single cell suspension overnight. Newly formed spheres were resuspended in 2 μl of Matrigel, loaded into a NanoFil syringe and stereotactically injected into the striatum (2.5 mm lateral to the bregma at a depth of 3.0 mm) of 8-10 week-old Fox Chase SCID-Beige mice under anesthesia. Tumor growth was longitudinally monitored by magnetic resonance imaging at the Small Animal Imaging Center at the DKFZ. Upon reaching termination criteria, mice were sacrificed and brains were collected after transcardial perfusion. For perfusion, mice were anesthetized by intraperitoneal injection of 800 μl of perfusion solution. After opening the thoracic cavity exposing heart, transcardial perfusion was carried out with 10 ml of ice cold HBSS.

O=S(=O)(NC1CCNCC1)c1cc(S(=O)(=O)c2ccccc2)ccc1C(F)(F)F [WAY-316606, 5-(phenylsulfonyl)-N-4-piperidinyl-2-(trifluoromethyl)-benzenesulfonamide]
number of proliferating (KI-67+/mCherry+) tumor cells [1]: drastically increases the number of proliferating cells

B1: SFRP1: secreted Wnt antagonist; human SFRP1 cloned downstream of the TCF/Lef promoter, lentivirally overexpressed in GBM cells (protein, UniProt Q8N474 32-314, looked up)
Secreted frizzled-related …: SEYDYVSFQSDIGPYQSGRFYTKPPQCVDIPADLRLCHNVGYKKMVLPNLLEHETMAEVKQQASSWVPLLNKNCHAGTQVFLCSLFAPVCLDRPIYPCRWLCEAVRDSCEPVMQFFGFYWPEMLKCDKFPEGDVCIAMTPPNATEASKPQGTTVCPPCDNELKSEAIIEHLCASEFALRMKIKEVKKENGDKKIVPKKKKPLKLGPIKKKDLKKLVLYLKNGADCPCHQLDNLSHHFLIMGRKVKSQYLLTAIHKWDKKNKEFKNFMKKMKNHECPTFQSVFK
tumor cell morphology (IHC) (PDX GBMs [2]): extensive morphological changes; also recorded: dominant astrocyte-like morphology | effects on Quiescence, Activation and cycling cells in PDA (T6 PDA): consistent yet weaker | cycling cells (PDX GBMs [3]; PDX vs control): relative increase in cycling cells | Activation state (ptalign cell state) (PDX GBMs [3]): concomitant reduction in the Activation state | tumor Differentiation (ptalign aligned pseudotime) (PDX GBMs [3]): without disturbing differentiation; also recorded: not affected | tumor Quiescence (ptalign cell state, incl. astroQ) (PDX GBMs [3]): significantly increased quiescence; also recorded: significant increase in tumor Quiescence | survival longer than control, on average (PDX GBMs [4]; SFRP1 induction in PDX GBMs, before the experiment was terminated): 1 month | overall survival (PDX GBMs [4]): significant increase in overall survival | overall survival (PDX GBMs [4]; listed as sFRP1): significantly increased survival

B2: NOTUM: Wnt antagonist notum polypeptide (Genbank Acc No. NP_848588.3), overexpressed in PDX GBM cells (protein, UniProt Q6P988 20-496, looked up)
Palmitoleoyl-protein …: SEGRKTWRRRGQQPPPPPRTEAAPAAGQPVESFPLDFTAVEGNMDSFMAQVKSLAQSLYPCSAQQLNEDLRLHLLLNTSVTCNDGSPAGYYLKESRGSRRWLLFLEGGWYCFNRENCDSRYDTMRRLMSSRDWPRTRTGTGILSSQPEENPYWWNANMVFIPYCSSDVWSGASSKSEKNEYAFMGALIIQEVVRELLGRGLSGAKVLLLAGSSAGGTGVLLNVDRVAEQLEKLGYPAIQVRGLADSGWFLDNKQYRHTDCVDTITCAPTEAIRRGIRYWNGVVPERCRRQFQEGEEWNCFFGYKVYPTLRCPVFVVQWLFDEAQLTVDNVHLTGQPVQEGLRLYIQNLGRELRHTLKDVPASFAPACLSHEIIIRSHWTDVQVKGTSLPRALHCWDRSLHDSHKASKTPLKGCPVHLVDSCPWPHCNPSCPTVRDQFTGQEMNVAQFLMHMGFDMQTVAQPQGLEPSELLGMLSNGS
Activation state (ptalign cell state) (PDX GBMs [3]): concomitant reduction in activation | tumor Differentiation (ptalign aligned pseudotime) (PDX GBMs [3]): without disturbing differentiation | tumor Quiescence (ptalign cell state, incl. astroQ) (PDX GBMs [3]): significantly increased quiescence | overall survival (PDX GBMs [4]): significantly increased survival
